# Measured values published in patent US20060063727, “Tr4/tr2 response elements” (published 2006).
# T1: TR4 orphan receptor (NR2C2) (Homo sapiens) (UniProt P49116)
# T1 sequence: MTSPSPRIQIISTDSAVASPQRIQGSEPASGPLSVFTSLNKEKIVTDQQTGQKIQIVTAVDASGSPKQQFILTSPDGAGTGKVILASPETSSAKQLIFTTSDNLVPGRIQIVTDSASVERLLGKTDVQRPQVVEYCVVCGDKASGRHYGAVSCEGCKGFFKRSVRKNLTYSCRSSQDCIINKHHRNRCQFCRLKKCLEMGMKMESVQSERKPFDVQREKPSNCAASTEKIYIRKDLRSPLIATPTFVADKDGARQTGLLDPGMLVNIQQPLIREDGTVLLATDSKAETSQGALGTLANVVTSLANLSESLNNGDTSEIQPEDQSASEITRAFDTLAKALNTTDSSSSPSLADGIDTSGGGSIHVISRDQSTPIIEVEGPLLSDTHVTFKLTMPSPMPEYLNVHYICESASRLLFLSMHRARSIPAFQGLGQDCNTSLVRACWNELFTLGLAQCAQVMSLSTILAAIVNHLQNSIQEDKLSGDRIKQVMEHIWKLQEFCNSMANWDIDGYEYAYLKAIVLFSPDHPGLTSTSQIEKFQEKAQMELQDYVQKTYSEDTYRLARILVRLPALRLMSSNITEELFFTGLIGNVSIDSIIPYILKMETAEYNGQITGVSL
# T2: TR2 orphan receptor (TR2-11, NR2C1) (Homo sapiens, UniProt P13056 SEQ:1-603)
# T2 chain: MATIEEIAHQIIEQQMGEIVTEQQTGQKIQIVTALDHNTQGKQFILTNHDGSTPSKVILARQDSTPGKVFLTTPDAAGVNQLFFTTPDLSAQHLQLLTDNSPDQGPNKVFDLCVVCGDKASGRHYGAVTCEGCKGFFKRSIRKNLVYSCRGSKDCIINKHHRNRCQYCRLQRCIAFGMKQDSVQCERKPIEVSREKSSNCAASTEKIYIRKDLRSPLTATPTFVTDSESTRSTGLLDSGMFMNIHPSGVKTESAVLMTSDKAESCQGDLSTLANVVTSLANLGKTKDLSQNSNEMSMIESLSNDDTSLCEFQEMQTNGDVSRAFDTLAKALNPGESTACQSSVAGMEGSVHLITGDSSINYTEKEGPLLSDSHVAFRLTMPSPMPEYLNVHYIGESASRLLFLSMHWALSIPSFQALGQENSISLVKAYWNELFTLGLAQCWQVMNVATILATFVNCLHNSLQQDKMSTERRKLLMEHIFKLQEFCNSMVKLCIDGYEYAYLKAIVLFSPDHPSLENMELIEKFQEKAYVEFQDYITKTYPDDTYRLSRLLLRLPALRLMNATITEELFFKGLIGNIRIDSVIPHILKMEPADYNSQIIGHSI
# B1: HPV-16 DR4RE (dsDNA)
# DNA 1: ATGTCACCCTAGTTCA
# DNA 2: TGAACTAGGGTGACAT
# B2: PPRE (rat acyl-CoA oxidase) (dsDNA)
# DNA 1: GTCGACAGGGGACCAGGACAAAGGTCACGTTCGGGAGTCGAC
# DNA 2: GTCGACTCCCGAACGTGACCTTTGTCCTGGTCCCCTGTCGAC
# Experiments:
# [1] = target: T1, TR4 orphan receptor (NR2C2) (Homo sapiens); assay: competition; settings: competitive EMSA
# [2] = target: T2, TR2 orphan receptor (TR2-11, NR2C1); assay: EMSA; competed by excess unlabeled oligo; supershift with anti-TR2 G204; settings: tags: none stated, pSG5-hTR2-11, TNT rabbit reticulocyte lysate; label: 32P
# Protocol: EMSA analysis was performed as described previously (Lee, H. J., and Chang, C. (1995) J. Biol. Chem. 270, 5434-5440). […] For competition reactions, unlabeled HPV-16 DR4RE oligonucleotides were mixed with labeled probe prior to its addition to the reaction. Antibody shift analysis involved the addition of 1 μl of the monoclonal anti-TR2 orphan receptor antibody, G204, to the reaction for 15 min., at room temperature, prior to gel loading.
# The site consists of two consensus A(G/T)(G/T)TCA half sites with a spacing of 4 nucleotides (ATGTCAccctAGTTCA). To determine whether TR2 was able to bind the HPV-16 DR4RE, gel shift analysis was performed. […] Also in FIG. 3A, a mock in vitro transcription/translation reaction was used in lane 3, and lane 4 contains ³²P-labeled HPV-16 DR4RE alone. To further confirm the binding specificity of TR2 for the HPV-16 DR4RE, a TR2-specific monoclonal antibody was added, resulting in an upward shift of the labeled complex (FIG. 3B).
# [3] = target: T2, TR2 orphan receptor (TR2-11, NR2C1); assay: EMSA; Scatchard; 25 mM Tris pH 8.0, 50 mM KCl, poly(dI.dC); settings: tags: none stated, pSG5-hTR2-11, TNT rabbit reticulocyte lysate; label: 32P
# Protocol: Electrophoretic mobility shift assay analysis was performed as previously described (Jiang, C. K. et al. (1991) J Invest Dermatol 97, 969-973). The oligonucleotides were 5′ end labeled with γ-³²P ATP (specific activity=6000 Ci/mmole) (New England Nuclear) by T4 polynucleotide kinase. The specific activity reached 2-8×10⁸ cpm/μg. Labeled oligonucleotides (0.1 ng) were incubated with in vitro translated proteins, in the presence or absence of unlabeled oligonucleotide competitor or rabbit antiserum against TR2 (Cooney, A. J. et al. (1993) J Biol Chem 268, 4152-4160), for 15 min at room temperature. The binding buffer contained 25 mM Tris-HCl (pH 8.0), 10% glycerol, 50 mM KCl, 2 mM EDTA, 0.05% TritonX-100, 5 mM DTT, 1% β-mercaptoethanol, 5 ng/ml bovine serum albumin, 1.5 units/ml aprotinin, and 1 μg poly(dI.dC) (Pharmacia). […] The radioactive gels were analyzed by PhosphorImager (Molecular Dynamics). […]
# To clarify the potential mechanism for the differential regulation of PPARα signal pathway by TR2 and TR4, the Kds (equilibrium dissociation constants) for TR2 and TR4 binding to PPRE were calculated using Scatchard analysis. […] The Kd values calculated here were consistent with the range of Kd values for nuclear receptors and their hormone response elements.
molecule,measurement,setting,value
CRBPII (DR1),IC50,[1]; best of natural elements,0.023 ng
DR4 synthetic,IC50,"[1]; range end assigned by order, weakest synthetic DR",0.24 ng
DR6 synthetic,IC50,[1]; range end assigned by order DR6>DR5>DR1>DR3>DR2>DR4,0.08 ng
ERE (palindrome),IC50,"[1]; weakest natural element, bound poorly, range end assigned by order",85 ng
B1,binding result,[2],binds
B2,Kd,[3],1.23 nM
